According to paper PMC4207781:

Molecular target: Fc gamma receptor IIb (FcγRIIb) on GM-CSF macrophages (human (endogenous in monocyte-derived macrophages)) (UniProt P31994)
UniProt P31994, sequence (P31994 43-217): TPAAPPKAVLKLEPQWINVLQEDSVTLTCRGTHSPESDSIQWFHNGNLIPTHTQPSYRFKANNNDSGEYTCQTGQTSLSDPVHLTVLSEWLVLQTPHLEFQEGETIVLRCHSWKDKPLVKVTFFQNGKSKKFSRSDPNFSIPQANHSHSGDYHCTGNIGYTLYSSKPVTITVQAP

reduction of TNFα release by gmMφ co-cultured 1:5 with cytokine activated T cells (Tck) for 20 h, with ICs (50 µg/ml): 50%
Substance: heat-aggregated immune complexes (IC) of human IgG
